Data reported in US20100150906A1 (AC IMMUNE S A, published 2010).
No end group written: not given here.

Key:
[1] = biological target: peptide A19 of the second library (aa 12-20, F19 to alanine) (biotinylated (position not given)); assay: ELISA, biotinylated alanine-substituted peptides on streptavidin plate, O.D. 405 nm [middle chart, Figure 2]
Description: (§1) One library comprised a total of 33 biotinylated peptides covering the complete amino acid (aa) sequence of Aβ1-42 (produced by Mimotopes and purchased from ANAWA Trading SA), the second library contains biotinylated peptides using peptide 12 (aa12-20 of Aβ) from the first peptide library and substituting each aa in the sequence by an alanine (see table 8 below), and the third library contains biotinylated peptides 13, 14, or 15 (aa 13-21, 14-22 or 15-23 of Aβ) and substituting in each case the last amino acids to an alanine or to a glycine for aa 21 which is already an alanine (see table 9 below). A biotinylated complete Aβ1-42 peptide was used as positive control (Bachem). Epitope mapping was done according to the manufacturer's (Mimotopes) instructions. Briefly, Streptavidin coated plates (NUNC) were blocked with 0.1% BSA in PBS overnight at 4° C. After washing with PBS-0.05% Tween 20, plates were coated for 1 hour at RT with the different peptides from the library, diluted in 0.1% BSA, 0.1% Sodium Azide in PBS to a final concentration of 10 μM. […] Plates were washed again and incubated with alkaline phosphatase conjugated goat anti human IgG for 1 h at RT.

[2] = biological target: peptide A16 of the second library (aa 12-20, K16 to alanine) (biotinylated (position not given)); assay: as above
Description: as §1

[3] = biological target: T1, peptide A20 of the second library (aa 12-20, F20 to alanine) (also: biotinylated, position not given here); assay: as above
T1 peptide: VHHQKLVFA
Description: as §1

[4] = biological target: T2, peptide A17 of the second library (aa 12-20, L17 to alanine) (also: biotinylated, position not given here); assay: as above
T2 peptide: VHHQKAVFF
Description: as §1

amyloid beta 1-42 fibers [5] = biological target: T3, amyloid beta 1-42 fibers (UniProt P05067 672-713); assay: ELISA on coated amyloid (55 µg/ml); mC2 at 0.078 ug/ml
T3 construct: domain: amyloid beta 1-42; Many copies per fiber; also called Aβ1-42 fibers; fibrillar Aβ1-42
T3 sequence (P05067 672-713 limits assumed): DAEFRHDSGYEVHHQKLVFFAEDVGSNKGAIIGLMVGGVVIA
Description: (§2) In order to evaluate the specificity of mC2 to different stages of polymerized amyloid protein, monomeric, polymeric soluble and fibrillic amyloid, an ELISA coated with these different stages of polymeric beta-amyloid was performed (FIG. 9). Monomers were prepared according to a modified method published by (Klein, 2002), soluble polymeric amyloid beta according to (Barghorn et al., 2005), whereas fibers were performed by incubation of amyloid (Bachem, Switzerland) with a final concentration of 1 μg/μl in Tris/HCl pH 7.4 at 37° C. for 5 days followed by a centrifugation step (10,000 rpm for 5 minutes). Then amyloid polymers were coated on an ELISA plates with a final concentration of 55 μg/ml and binding affinity ELISA by using an anti-mouse IgG monoclonal antibody (Jackson) labelled with alkaline phosphate was performed.

[6] = biological target: T4, amyloid beta 1-42 monomers (UniProt P05067 672-713); assay: as above
T4 construct: domain: amyloid beta 1-42; also called Aβ1-42 monomers; amyloid monomers
T4 sequence (P05067 672-713 limits assumed): as above
Description: as §2

[7] = biological target: T5, soluble polymeric amyloid beta (oligomers) (UniProt P05067 672-713); assay: ELISA on coated amyloid (55 µg/ml); mC2 at 0.312 ug/ml
T5 construct: domain: amyloid beta 1-42; also called amyloid oligomers; Abeta oligomer
T5 sequence (P05067 672-713 limits assumed): as above
Description: as §2

amyloid beta 1-42 fibers [8] = biological target: T3, amyloid beta 1-42 fibers; assay: as above
Description: as §2

[9] = biological target: T4, amyloid beta 1-42 monomers; assay: as above
Description: as §2

[10] = biological target: T6, peptide A15 of the second library (aa 12-20, Q15 to alanine) (also: biotinylated, position not given here); assay: ELISA on alanine-substituted biotinylated peptides, antibody at 10 µg/ml
T6 peptide: VHHAKLVFF
Description: (§3) Epitope mapping of the monoclonal antibody mACI-01-Ab7 C2 was performed by ELISA using three different peptide libraries. One library comprises a total of 33 biotinylated peptides covering the complete amino acid (aa) sequence of Aβ1-42 (produced by Mimotopes and purchased from ANAWA Trading SA), the second library contains biotinylated peptides using peptide 12 (aa12-20 of Aβ) from the first peptide library and substituting each amino acid in the sequence by an alanine (see table 41 below), and the third library contains biotinylated peptides 13, 14, or 15 (aa 13-21, 14-22 or 15-23 of Aβ) and substituting in each case the last amino acids to an alanine or to a glycine for aa 21 which is already an alanine (see table 5 below). A biotinylated complete Aβ1-42 peptide was used as positive control (Bachem). Epitope mapping was done according to the manufacturer's (Mimotopes) instructions. Briefly, Streptavidin coated plates (NUNC) were blocked with 0.1% BSA in PBS overnight at 4° C. After washing with PBS-0.05% Tween 20, plates were coated for 1 hour at RT with the different peptides from the library, diluted in 0.1% BSA, 0.1% Sodium Azide in PBS to a final concentration of 10 μM. After washing, plates were incubated for 1 hour at RT with the mACI-01-Ab7 C2 antibody or an isotype control mouse IgG2b antibody, diluted to 10 μg/ml in 2% BSA, 0.1% Sodium Azide in PBS. […]

[11] = biological target: peptide A18 of the second library (aa 12-20, V18 to alanine) (biotinylated (position not given)); assay: as above
Description: as §3

[12] = biological target: T4, amyloid beta 1-42 monomers; assay: SPR (BIACORE), Aβ1-42 monomers immobilized on CM5 chip, antibody 0.05-1.0 µM
Description: BIACORE® technology utilizes changes in the refractive index at the surface layer upon binding of the antibody to the antigen immobilized on the layer. Binding is detected by surface plasmon resonance (SPR) of laser light refracting from the surface. Analysis of the signal kinetics on rate and off rate allows the discrimination between non-specific and specific interaction. The concentration of antibody used was in the range of 0.05 μM to 1.0 μM.

B1: humanized anti-human amyloid beta monoclonal antibody hC2 (antibody, human IgG4 S228P, kappa, V domains shown)
VH: EVQLVESGGGLVQPGGSLRLSCAASGFTFSSYGMSWVRQAPGKGLELVASINSNGGSTYYPDSVKGRFTISRDNAKNSLYLQMNSLRAEDTAVYYCASGDYWGQGTTVTVSS
VL: DIVMTQSPLSLPVTPGEPASISCRSSQSLVYSNGDTYLHWYLQKPGQSPQLLIYKVSNRFSGVPDRFSGSGSGTDFTLKISRVEAEDVGVYYCSQSTHVPWTFGQGTKVEIKR
notes: also called humanized antibody C2; humanized C2
B1: no binding (tested: 200 ng/ml (single concentration)) [1]; no binding (tested: 200 ng/ml (single concentration)) [2]; no binding (tested: 200 ng/ml (single concentration)) [3]. B1: no binding (tested: 200 ng/ml (single concentration)) [4].

B2: mouse monoclonal antibody ACI-01-Ab7C2 (antibody, V domains shown)
VH: EVQLVESGGGLVQPGGSLKLSCAASGFTFSSYGMSWVRQTPDKRLELVASINSNGGSTYYPDSVKGRFTISRDNAKNTLYLQMSSLKSEDTAMYYCASGDYWGQGSTLTVSS
VL: DVVMTQTPLSLPVSLGDQASISCRSSQSLVYSNGDTYLHWYLQKPGQSPKLLIYKVSNRFSGVPDRFSGSGSGTDFTLKISRVEAEDLGVYFCSQSTHVPWTFGGGTKLEIK
notes: also called mC2; mACI-01-Ab7 C2
B2 was tested, and the O.D (amyloid beta 1-42 fibers [5]) was 0.499 O.D, the O.D [6] was 0.333 O.D and the O.D [7] was 1.72 O.D. The O.D (amyloid beta 1-42 fibers [8]) was 0.989 O.D, the O.D [9] was 0.649 O.D and the binding result [10] was “binds”. The binding result [11] was “binds”, the Kd [12] was 150 nM and the koff [12] was 0.0027 s⁻¹.
